Key:
[1] = target: His-tagged inceptor ectodomain (human) (UniProt Q6UXG2); assay: native MS; charge detection mass spectrometry (CDMS), Orbitrap Q Exactive UHMR; inceptor ECD-His (5 µM) alone or with insulin at 1:6 and 1:20, or with proinsulin; 150 mM ammonium acetate, pH 3–7; 37 °C for 30 min
[2] = target: inceptor–HaloTag fusion protein (FRET experiments, INS-1E cells) (human) (UniProt Q6UXG2); assay: FRET or BRET; live INS-1E cells overexpressing inceptor–HaloTag labelled with TMR; 100 nmol/l INS-630 and 0, 10, 100 and 1,000 nmol/l proinsulin in the medium for 40 min; corrected FRET efficiency by confocal imaging
[3] = target: the molecule itself; assay: native MS; charge detection mass spectrometry (CDMS), Orbitrap Q Exactive UHMR; inceptor ECD-His (5 µM) alone or with insulin at 1:6 and 1:20, or with proinsulin; 150 mM ammonium acetate, pH 3–7; 37 °C for 30 min

bovine proinsulin (ligand)
N for each inceptor dimer [1]: 1 | stoichiometry N [1]: 1

proinsulin (unlabelled, added to the medium in the FRET experiments) (ligand)
reduction of the FRET signal of inceptor to INS-630 at a 1:10 molar ratio of proinsulin to insulin [2]: 50%

B1: His-tagged inceptor ectodomain (domain or fragment, human, UniProt Q6UXG2 42-910, looked up)
chain: TGPELHACKESEYHYEYTACDSTGSRWRVAVPHTPGLCTSLPDPIKGTECSFSCNAGEFLDMKDQSCKPCAEGRYSLGTGIRFDEWDELPHGFASLSANMELDDSAAESTGNCTSSKWVPRGDYIASNTDECTATLMYAVNLKQSGTVNFEYYYPDSSIIFEFFVQNDQCQPNADDSRWMKTTEKGWEFHSVELNRGNNVLYWRTTAFSVWTKVPKPVLVRNIAITGVAYTSECFPCKPGTYADKQGSSFCKLCPANSYSNKGETSCHQCDPDKYSEKGSSSCNVRPACTDKDYFYTHTACDANGETQLMYKWAKPKICSEDLEGAVKLPASGVKTHCPPCNPGFFKTNNSTCQPCPYGSYSNGSDCTRCPAGTEPAVGFEYKWWNTLPTNMETTVLSGINFEYKGMTGWEVAGDHIYTAAGASDNDFMILTLVVPGFRPPQSVMADTENKEVARITFVFETLCSVNCELYFMVGVNSRTNTPVETWKGSKGKQSYTYIIEENTTTSFTWAFQRTTFHEASRKYTNDVAKIYSINVTNVMNGVASYCRPCALEASDVGSSCTSCPAGYYIDRDSGTCHSCPTNTILKAHQPYGVQACVPCGPGTKNNKIHSLCYNDCTFSRNTPTRTFNYNFSALANTVTLAGGPSFTSKGLKYFHHFTLSLCGNQGRKMSVCTDNVTDLRIPEGESGFSKSITAYVCQAVIIPPEVTGYKAGVSSQPVSLADRLIGVTTDMTLDGITSPAELFHLESLGIPDVIFFYRSNDVTQSCSSGRSTTIRVRCSPQKTVPGSLLLPGTCSDGTCDGCNFHFLWESAAACPLCSVADYHAIVSSCVAGIQKTTYVWREPKLCSGGISLPEQRVTICKTIDFWLK
notes: signal peptide in the construct; ectodomain of human inceptor (KIAA1324), Uniprot entry Q6UXG2, residues 1–910; Seen as monomer and, prevalently, as dimer by CDMS; also called inceptor ECD-His; inceptor ECD-6×His; source: HEK293 (pCDNA3-inceptor ECD-6×His), purified
stoichiometry N [3]: 2
